Literature values as cited in publication PMC2652250.

Biological target: cardiac troponin I 147-163 (Homo sapiens) (UniProt P19429)
Assay: NMR

## cardiac troponin C (cNTnC) N-terminal domain (from UniProt P63316)
  Kd: 154 µM
